Source: patent publication US20120165267A1
pIC50: −log10 of the molar value.

Experiments:
[1] = target: DR4-selective phage clone 8 (human) (UniProt P50591); experiment: competition phage ELISA: phage clone Apo.DR4-8 at a fixed concentration on wells coated with DR4-IgG, competed by rising soluble DR4-IgG (axis in nM), bound phage detected with anti-M13 antibody-HRP, A450; IC50 from a 4-parameter fit, first value in the IC50 box beside the legend
[2] = target: DR4-selective phage clone 11 (human) (UniProt P50591); experiment: competition phage ELISA: phage clone Apo.DR4-11 at a fixed concentration on wells coated with DR4-IgG, competed by rising soluble DR4-IgG (axis in nM), bound phage detected with anti-M13 antibody-HRP, A450; IC50 from a 4-parameter fit, third value in the IC50 box beside the legend
[3] = target: DR4-selective phage clone 9 (human) (UniProt P50591); experiment: competition phage ELISA: phage clone Apo.DR4-9 at a fixed concentration on wells coated with DR4-IgG, competed by rising soluble DR4-IgG (axis in nM), bound phage detected with anti-M13 antibody-HRP, A450; IC50 from a 4-parameter fit, second value in the IC50 box beside the legend
[4] = target: DR4-selective phage clone 13 (human) (UniProt P50591); experiment: competition phage ELISA: phage clone Apo.DR4-13 at a fixed concentration on wells coated with DR4-IgG, competed by rising soluble DR4-IgG (axis in nM), bound phage detected with anti-M13 antibody-HRP, A450; IC50 from a 4-parameter fit, fourth value in the IC50 box beside the legend
[5] = target: wild-type (native sequence) Apo2L/TRAIL(96-281) displayed on phage (human) (UniProt P50591); experiment: competition phage ELISA: wild-type Apo2L/TRAIL phage (ApoWT) at a fixed concentration on wells coated with DR4-IgG, competed by rising soluble DR4-IgG (axis in nM), bound phage detected with anti-M13 antibody-HRP, A450; IC50 from a 4-parameter fit, fifth value in the IC50 box beside the legend

Sequence of DR4-IgG (O00220 24-241 H141R/R209T limits assumed): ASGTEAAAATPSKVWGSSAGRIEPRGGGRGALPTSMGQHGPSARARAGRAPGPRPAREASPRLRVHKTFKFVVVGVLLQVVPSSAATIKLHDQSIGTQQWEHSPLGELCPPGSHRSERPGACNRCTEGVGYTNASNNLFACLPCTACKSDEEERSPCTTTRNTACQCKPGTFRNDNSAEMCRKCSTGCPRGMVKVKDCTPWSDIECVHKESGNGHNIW

DR4-IgG (from UniProt O00220 24-241) (Fc fusion)
pIC50 [1]: 8.89 | pIC50 [2]: 8.38 | pIC50 [3]: 8.96 | pIC50 [4]: 8.17 | pIC50 [5]: 8.55
